The results in this text go back to patent US11858974 (RESQ BIOTECH, dated 2024).

The target of the assay is T1, SOD1(A4V), Ala4Val variant of human Cu/Zn superoxide dismutase 1 (human, UniProt P00441 2-154, A4V).
T1 construct: Isolated from E. coli Origami 2(DE3) (pETSOD1(A4V) or pASK-SOD1 vectors); also called isolated SOD1(A4V); mutant SOD1
As to the kind of experiment: CD spectroscopy of isolated SOD1(A4V) incubated with synthetic cyclic peptide. Here is the method: Appropriate amounts of synthetic cyclic peptides were added to either 40 µM SOD1(A4V) or 50 µM Aβ solutions at the desired cyclic peptide:target protein molar ratio. SOD1(A4V) structural changes were monitored for 90 d at 25° C., under quiescent conditions. Aβ structural changes were monitored for 30 d at 33° C. under quiescent conditions. CD spectra in the range 190-260 nm were recorded on a JASCO J-715 spectropolarimeter (Jasco Co., Japan) using quartz cuvettes with 1 mm path length. Each reported spectrum is the average of three scans at a rate of 100 nm·min^-1 and a resolution of 0.5 nm.

T1 sequence (P00441 2-154 A5V): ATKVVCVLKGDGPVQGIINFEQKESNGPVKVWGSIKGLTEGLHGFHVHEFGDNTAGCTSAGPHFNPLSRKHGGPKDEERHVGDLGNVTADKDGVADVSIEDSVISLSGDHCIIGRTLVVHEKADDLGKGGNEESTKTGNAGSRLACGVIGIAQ

B1: SOD1C5-4 (cyclo-TWSVW) (peptide)
peptide: TWSVW
modifications: head-to-tail cyclic peptide (cyclo-TWSVW), no free termini
notes: Made by solid-phase synthesis (CPC Scientific); Backbone-cyclised pentapeptide; also called SODC5-4; selected cyclic pentapeptide SOD1C5-4
B1: the binding result was “binds”.

B2: AβC5-34 (cyclo-SASPT) (peptide)
peptide: SASPT
modifications: head-to-tail cyclic peptide (cyclo-SASPT), no free termini
notes: Made by solid-phase synthesis (Genscript); also called Aβ-targeting cyclic 5-peptide number 34
For B2, the binding result is given as “no binding”.

B3: AβC5-116 (cyclo-TAFDR) (peptide)
peptide: TAFDR
modifications: head-to-tail cyclic peptide (cyclo-TAFDR), no free termini
notes: Made by solid-phase synthesis (Genscript)
For the molecule B3, the binding result was “no binding”.
